Target: non-glycosylated wild-type PAI-1 (PAI-1-wt) (human) (UniProt P05121)
Chain of UniProt P05121 (P05121 24-402): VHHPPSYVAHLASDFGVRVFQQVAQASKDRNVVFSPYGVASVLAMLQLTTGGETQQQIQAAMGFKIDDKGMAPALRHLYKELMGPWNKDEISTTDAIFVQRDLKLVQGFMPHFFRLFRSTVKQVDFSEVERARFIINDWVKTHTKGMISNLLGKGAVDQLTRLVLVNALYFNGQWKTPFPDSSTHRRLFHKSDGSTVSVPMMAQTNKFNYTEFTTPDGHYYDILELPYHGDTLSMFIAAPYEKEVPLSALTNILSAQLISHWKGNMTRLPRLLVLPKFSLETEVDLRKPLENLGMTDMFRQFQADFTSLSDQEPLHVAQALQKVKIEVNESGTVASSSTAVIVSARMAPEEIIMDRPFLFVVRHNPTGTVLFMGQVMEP

B1: VHH-s-a93 (Nb93) (VHH)
VHH: QVQLVESGGGLVQPGGSLRLSCAASGFSLDNYAIGWFRQAPGKEREGVSCISSSDGSTYYTDSVEGRFTISRDNAKNTVYLQMNSLKPDDTAVYYCAADYGSSWCTFNGMDYWGQGTQVTVSS
IC50 of inhibition of PAI-1-wt activity, chromogenic plasminogen-coupled assay with tPA (residual tPA activity; pair blocked: PAI-1/tPA), Nb93 1 to 512 nM: 202 nM
maximum inhibition of PAI-1-wt activity, chromogenic plasminogen-coupled assay with tPA (pair blocked: PAI-1/tPA), Nb93 1 to 512 nM: 55%

Source: publication PMC7461574
